For three molecules, binding result and Kd results are on record in publication PMC9902533, “Direct digital sensing of protein biomarkers in solution”.

For series [1], the target named is CD63 on exosomes (human? (MDA-MB-231 breast cancer cell …, UniProt P08962 2-238)). Description: microchip free-flow electrophoresis, single-particle counting (DigitISA); 5, 50, 100 nM aptamer; isolated exosomes; 10 mM HEPES pH 7.4, 0.05% Tween-20, room temperature (IgE; fibrils and exosomes same buffer); FUS: 50 mM Tris-HCl pH 7.4, 25 mM KCl, 0.02% Tween-20, on-chip desalting; oligomers: from PBS pH 7.4, on-chip desalting. As to conditions: protein: native; tags: none; label: fluorescent label, not specified.

Series [2] deals with FUS-SNAP (UniProt P35637 1-526). Description: microchip free-flow electrophoresis (DigitISA); 700 nM aptamer, 2 uM FUS, condensates present; monomer-bound vs free; 10 mM HEPES pH 7.4, 0.05% Tween-20, room temperature (IgE; fibrils and exosomes same buffer); FUS: 50 mM Tris-HCl pH 7.4, 25 mM KCl, 0.02% Tween-20, on-chip desalting; oligomers: from PBS pH 7.4, on-chip desalting. The conditions noted are these: protein: recombinant; tags: SNAP; label: 3'-Atto488.

Series [3] has as its target alpha-synuclein oligomers (human, UniProt P37840 1-140). Description: microchip free-flow electrophoresis, single-molecule counting (DigitISA); 100 nM aptamer; complex 32.7 pM; 10 mM HEPES pH 7.4, 0.05% Tween-20, room temperature (IgE; fibrils and exosomes same buffer); FUS: 50 mM Tris-HCl pH 7.4, 25 mM KCl, 0.02% Tween-20, on-chip des.

FUS-SNAP, sequence (P35637 whole entry): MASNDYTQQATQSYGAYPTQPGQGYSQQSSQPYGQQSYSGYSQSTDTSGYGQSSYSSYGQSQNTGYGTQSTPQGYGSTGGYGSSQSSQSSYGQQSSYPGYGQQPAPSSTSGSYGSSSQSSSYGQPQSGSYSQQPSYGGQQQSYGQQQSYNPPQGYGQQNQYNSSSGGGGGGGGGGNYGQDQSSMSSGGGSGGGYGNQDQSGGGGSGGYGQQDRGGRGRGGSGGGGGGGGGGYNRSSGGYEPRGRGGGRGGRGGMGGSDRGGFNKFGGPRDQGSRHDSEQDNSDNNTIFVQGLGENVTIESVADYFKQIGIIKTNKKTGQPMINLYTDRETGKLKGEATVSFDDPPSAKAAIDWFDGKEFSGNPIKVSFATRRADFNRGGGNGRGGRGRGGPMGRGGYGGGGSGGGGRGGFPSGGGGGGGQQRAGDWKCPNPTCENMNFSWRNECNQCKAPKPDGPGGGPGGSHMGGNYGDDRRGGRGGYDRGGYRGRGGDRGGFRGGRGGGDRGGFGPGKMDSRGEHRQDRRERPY
CD63 on exosomes (human?, sequence (P08962 2-238): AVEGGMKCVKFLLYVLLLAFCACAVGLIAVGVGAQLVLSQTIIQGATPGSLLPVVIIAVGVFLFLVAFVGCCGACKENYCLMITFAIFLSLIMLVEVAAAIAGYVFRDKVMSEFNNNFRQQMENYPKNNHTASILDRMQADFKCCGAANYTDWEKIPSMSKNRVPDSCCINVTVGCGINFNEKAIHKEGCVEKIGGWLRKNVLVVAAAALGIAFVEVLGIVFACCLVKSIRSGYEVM

In the case of CACCCCACCTCGCTCCCGTGACACTAATGCTA (structured_DNA) [CD63 aptamer], in series [1], the binding result is given as “binds”. For the molecule UUGUAUUUUGAGCUAGUUUGGUGAC (ssRNA) [GGUG RNA aptamer], the Kd (as a rule, the constant that tells how readily two partners part at equilibrium) in series [2] was 280 ± 20 nM. Consider TTTTGGGTCGGCTGTCCGTGGGTGGGGA (structured_DNA) [T-SO606 aptamer], for which, in series [3], the binding result was “binds”.
